Laboratory results: patent US20260167693A1 (ANGELES THERAPEUTICS, published 2026)

T1: human CD19 (human, UniProt P15391 20-556)
T1 sequence (looked up): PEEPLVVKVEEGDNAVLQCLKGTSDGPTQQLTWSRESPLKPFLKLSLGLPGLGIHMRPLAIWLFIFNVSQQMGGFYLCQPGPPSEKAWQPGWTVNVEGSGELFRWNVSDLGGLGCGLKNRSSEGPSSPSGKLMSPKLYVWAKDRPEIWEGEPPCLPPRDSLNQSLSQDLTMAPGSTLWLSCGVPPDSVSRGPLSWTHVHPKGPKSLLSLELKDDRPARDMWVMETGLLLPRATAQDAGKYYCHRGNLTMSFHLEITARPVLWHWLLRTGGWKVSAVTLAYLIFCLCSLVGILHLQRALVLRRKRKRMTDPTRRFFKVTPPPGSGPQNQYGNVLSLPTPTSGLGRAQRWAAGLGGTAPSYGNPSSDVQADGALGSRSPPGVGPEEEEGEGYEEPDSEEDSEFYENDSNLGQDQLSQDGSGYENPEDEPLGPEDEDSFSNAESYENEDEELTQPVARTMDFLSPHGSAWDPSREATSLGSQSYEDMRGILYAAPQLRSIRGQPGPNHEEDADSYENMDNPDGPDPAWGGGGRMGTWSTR

B1: CD8SP-hu-FMC65-1-vL-[hTCRb-D59C]-F-P2A-SP-hu-FMC65-1-vH-[hTCRa-T45C] (other)
TCR beta: DVVMTQSPSSLSASVGDRVTITCRASQDISKYLNWYQQKPGKAPKLLIYHTSRLHSGVPSRFSGSGSGTDFTLTISSLQPEDFATYYCQQGNTLPYTFGGGTKVEIKEDLKNVFPPEVAVFEPSEAEISHTQKATLVCLATGFYPDHVELSWWVNGKEVHSGVSTCPQPLKEQPALNDSRYCLSSRLRVSATFWQNPRNHFRCQVQFYGLSENDEWTQDRAKPVTQIVSAEAWGRADCGFTSESYQQGVLSATILYEILLGKATLYAVLVSALVLMAMVKRKDSRG
TCR alpha: QVQLQESGPGLVKPSQTLSLTCTVSGVSLPDYGVSWIRQPPGKGLEWIGVIWGSETTYYNSALKSRVLISVDTSKNQVSLKLSSVTAADTAVYYCARHYYYGGSYAMDYWGQGTTVTVSSIQNPDPAVYQLRDSKSSDKSVCLFTDFDSQTNVSQSKDSDVYICDKTVLDMRSMDFKSNSAVAWSNKSDFACANAFNNSIIPEDTFFPSPESSCDVKLVEKSFETDTNLNFQNLSVIGFRILLLKVAGFNLLMTLRLWSS
B2: CD8SP-hu-FMC65-1-vL-[hTCRb-S77C]-F-P2A-SP-hu-FMC65-1-vH-[hTCRa-T45C] (other)
TCR beta: DVVMTQSPSSLSASVGDRVTITCRASQDISKYLNWYQQKPGKAPKLLIYHTSRLHSGVPSRFSGSGSGTDFTLTISSLQPEDFATYYCQQGNTLPYTFGGGTKVEIKEDLKNVFPPEVAVFEPSEAEISHTQKATLVCLATGFYPDHVELSWWVNGKEVHSGVSTDPQPLKEQPALNDSRYCLCSRLRVSATFWQNPRNHFRCQVQFYGLSENDEWTQDRAKPVTQIVSAEAWGRADCGFTSESYQQGVLSATILYEILLGKATLYAVLVSALVLMAMVKRKDSRG
TCR alpha: QVQLQESGPGLVKPSQTLSLTCTVSGVSLPDYGVSWIRQPPGKGLEWIGVIWGSETTYYNSALKSRVLISVDTSKNQVSLKLSSVTAADTAVYYCARHYYYGGSYAMDYWGQGTTVTVSSIQNPDPAVYQLRDSKSSDKSVCLFTDFDSQTNVSQSKDSDVYICDKTVLDMRSMDFKSNSAVAWSNKSDFACANAFNNSIIPEDTFFPSPESSCDVKLVEKSFETDTNLNFQNLSVIGFRILLLKVAGFNLLMTLRLWSS
B3: CD8SP-hu-FMC65-1-vL-[hTCRb-E15C]-F-P2A-SP-hu-FMC65-1-vH-[hTCRa-S15C] (other)
TCR beta: DVVMTQSPSSLSASVGDRVTITCRASQDISKYLNWYQQKPGKAPKLLIYHTSRLHSGVPSRFSGSGSGTDFTLTISSLQPEDFATYYCQQGNTLPYTFGGGTKVEIKEDLKNVFPPEVAVFCPSEAEISHTQKATLVCLATGFYPDHVELSWWVNGKEVHSGVSTDPQPLKEQPALNDSRYCLSSRLRVSATFWQNPRNHFRCQVQFYGLSENDEWTQDRAKPVTQIVSAEAWGRADCGFTSESYQQGVLSATILYEILLGKATLYAVLVSALVLMAMVKRKDSRG
TCR alpha: QVQLQESGPGLVKPSQTLSLTCTVSGVSLPDYGVSWIRQPPGKGLEWIGVIWGSETTYYNSALKSRVLISVDTSKNQVSLKLSSVTAADTAVYYCARHYYYGGSYAMDYWGQGTTVTVSSIQNPDPAVYQLRDCKSSDKSVCLFTDFDSQTNVSQSKDSDVYITDKTVLDMRSMDFKSNSAVAWSNKSDFACANAFNNSIIPEDTFFPSPESSCDVKLVEKSFETDTNLNFQNLSVIGFRILLLKVAGFNLLMTLRLWSS
B4: CD8SP-hu-FMC65-1-vL-[hTCRb-S17C]-F-P2A-SP-hu-FMC65-1-vH-[hTCRa-Y10C] (other)
TCR beta: DVVMTQSPSSLSASVGDRVTITCRASQDISKYLNWYQQKPGKAPKLLIYHTSRLHSGVPSRFSGSGSGTDFTLTISSLQPEDFATYYCQQGNTLPYTFGGGTKVEIKEDLKNVFPPEVAVFEPCEAEISHTQKATLVCLATGFYPDHVELSWWVNGKEVHSGVSTDPQPLKEQPALNDSRYCLSSRLRVSATFWQNPRNHFRCQVQFYGLSENDEWTQDRAKPVTQIVSAEAWGRADCGFTSESYQQGVLSATILYEILLGKATLYAVLVSALVLMAMVKRKDSRG
TCR alpha: QVQLQESGPGLVKPSQTLSLTCTVSGVSLPDYGVSWIRQPPGKGLEWIGVIWGSETTYYNSALKSRVLISVDTSKNQVSLKLSSVTAADTAVYYCARHYYYGGSYAMDYWGQGTTVTVSSIQNPDPAVCQLRDSKSSDKSVCLFTDFDSQTNVSQSKDSDVYITDKTVLDMRSMDFKSNSAVAWSNKSDFACANAFNNSIIPEDTFFPSPESSCDVKLVEKSFETDTNLNFQNLSVIGFRILLLKVAGFNLLMTLRLWSS
B5: CD8SP-V5-[hTCRb-KACIAH]-F-P2A-CD8SP-CD19-hu-mROO5-vL-Gly-Ser-Linker-CD19-hu-mROO5-vH-Myc-[hTCRa-CSDVP]-F-F2A-PAC (other)
TCR beta: GKPIPNPLLGLDSTGSGEDLKNVFPPEVAVFEPSKAEIAHTQKATLVCLATGFYPDHVELSWWVNGKEVHSGVCTDPQPLKEQPALNDSRYCLSSRLRVSATFWQNPRNHFRCQVQFYGLSENDEWTQDRAKPVTQIVSAEAWGRADCGITSASYHQGVLSATILYEILLGKATLYAVLVSALVLMAMVKRKDSRG
TCR alpha: DIQMTQSPSSLSASVGDRVTITCKASDHINNWLAWYQQKPGQAPKLLIYGATTLETGVPSRFSGSGSGTDYTLTISSLQPEDFATYYCQQSWNTPWTFGQGTKLEIKRGGGGSGGGGSGGGGSQVQLQQPGAELVKPGASVKMSCKASGYAFSSYWINWMKQKPGQGLEWIGQIYPGDGDTNYNGKFKGRATLTADTSSSTAYMQLSSLTSEDSAVYFCARSITTVVGCAMDYWGQGTSVTVSSEQKLISEEDGSGIQNPDPAVYQLRDSKSSDKSVCLFTDFDSQTNVSQSKDSDVYITDKCVLDMRSMDFKSNSAVAWSNKSDFACANAFNNSIIPEDTFFPSSDVPCDVKLVEKSFETDTNLNFQNLSVIGFRILLLKVAGFNLLMTLRLWSS
B6: CD8SP-V5-[hTCRb-KACIAH]-F-P2A-CD8SP-hCD19-EUK5-13-vL-Gly-Ser-Linker-hCD19-EUK5-13-vH-Myc-[hTCRa-CSDVP]-F-F2A-PAC (other)
TCR beta: GKPIPNPLLGLDSTGSGEDLKNVFPPEVAVFEPSKAEIAHTQKATLVCLATGFYPDHVELSWWVNGKEVHSGVCTDPQPLKEQPALNDSRYCLSSRLRVSATFWQNPRNHFRCQVQFYGLSENDEWTQDRAKPVTQIVSAEAWGRADCGITSASYHQGVLSATILYEILLGKATLYAVLVSALVLMAMVKRKDSRG
TCR alpha: LPVLTQPPSVSVAPGKTARITCGGNNIGSKSVHWYQQKPGQAPVLVVYDDSDRPSGIPERFSGSNSGNTATLTISRVEAGDEADYYCQVWDSSSDYVVFGGGTKLTVLGGGGSGGGGSGGGGSEVQLVQSGAEVKKPGESLKISCKGSGYSFTSYWIGWVRQMPGKGLEWMGIIYPGDSDTRYSPSFQGQVTISADKSISTAYLQWSSLKASDTAMYYCARQVWGWQGGMYPRSNWWYNLDSWGQGTLVTVSSEQKLISEEDGSGIQNPDPAVYQLRDSKSSDKSVCLFTDFDSQTNVSQSKDSDVYITDKCVLDMRSMDFKSNSAVAWSNKSDFACANAFNNSIIPEDTFFPSSDVPCDVKLVEKSFETDTNLNFQNLSVIGFRILLLKVAGFNLLMTLRLWSS
B7: CD8SP-CD19-MOR0028-vL-Myc2-[hTCRb-KACIAH]-F-P2A-SP-CD19-MOR0028-vH-Myc4-[hTCRa-CSDVP]-F-F2A-PAC (other)
TCR beta: DIVMTQSPATLSLSPGERATLSCRSSKSLQNVNGNTYLYWFQQKPGQSPQLLIYRMSNLNSGVPDRFSGSGSGTEFTLTISSLEPEDFAVYYCMQHLEYPITFGAGTKLEIKEQKLISEEDLGSGEDLKNVFPPEVAVFEPSKAEIAHTQKATLVCLATGFYPDHVELSWWVNGKEVHSGVCTDPQPLKEQPALNDSRYCLSSRLRVSATFWQNPRNHFRCQVQFYGLSENDEWTQDRAKPVTQIVSAEAWGRADCGITSASYHQGVLSATILYEILLGKATLYAVLVSALVLMAMVKRKDSRG
TCR alpha: EVQLVESGGGLVKPGGSLKLSCAASGYTFTSYVMHWVRQAPGKGLEWIGYINPYNDGTKYNEKFQGRVTISSDKSISTAYMELSSLRSEDTAMYYCARGTYYYGTRVFDYWGQGTLVTVSSEQKLISEEDLGSGIQNPDPAVYQLRDSKSSDKSVCLFTDFDSQTNVSQSKDSDVYITDKCVLDMRSMDFKSNSAVAWSNKSDFACANAFNNSIIPEDTFFPSSDVPCDVKLVEKSFETDTNLNFQNLSVIGFRILLLKVAGFNLLMTLRLWSS
notes: also called 022817-L08
B8: CD8SP-pre-TCRa-del48-F-F2A-CD8SP-CD19-hu-mRO05-1-scFv-V5-[hTCRb-S57C-opt]-F-P2A-Pac (other)
chain: TPFPSLAPPIMLLVDGKQQMVVVCLVLDVAPPGLDSPIWFSAGNGSALDAFTYGPSPATDGTWTNLAHLSLPSEELASWEPLVCHTGPGAEGHSRSTQPMHLSGEASTARTCPQEPLRGTPGGALWLGVLRLLLFKLLLFDLLLTCSCLCDPAGPLPSPATTTRLRALGSHRLHPATETGGREATSSPRPQPRDRRWGDTPPGRKPGSPV
TCR beta: DIQMTQSPSSLSASVGDRVTITCKASDHINNWLAWYQQKPGQAPKLLIYGATTLETGVPSRFSGSGSGTDYTLTISSLQPEDFATYYCQQSWNTPWTFGQGTKLEIKRGGGGSGGGGSGGGGSQVQLQQPGAELVKPGASVKMSCKASGYAFSSYWINWMKQKPGQGLEWIGQIYPGDGDTNYNGKFKGRATLTADTSSSTAYMQLSSLTSEDSAVYFCARSITTVVGCAMDYWGQGTSVTVSSGKPIPNPLLGLDSTGSGEDLKNVFPPEVAVFEPSEAEISHTQKATLVCLATGFYPDHVELSWWVNGKEVHSGVCTDPQPLKEQPALNDSRYCLSSRLRVSATFWQNPRNHFRCQVQFYGLSENDEWTQDRAKPVTQIVSAEAWGRADCGFTSESYQQGVLSATILYEILLGKATLYAVLVSALVLMAMVKRKDSRG

How the values were obtained:
human CD19 [1] = target: T1, human CD19; test: cell-based or functional assay
human CD19 [2] = target: T1, human CD19; test: cell-based or functional assay; remark: listed apart in the source

Row | Binder | NFAT-GFP (%) after co-culture with RAJI cells (human CD19 [1]) [%] | NFAT-GFP (%) after overnight co-culture with RAJI cells (human CD19 [2]) [%]
1 | B1 | 1.35 | 
2 | B2 | 0.9 | 
3 | B3 | 2.48 | 
4 | B4 | 1.99 | 
5 | B5 |  | 9.55
6 | B6 |  | 6.67
7 | B7 |  | 31.6
8 | B8 |  | 6.77
